“And” between values parts separate entries of the source, which are not always exact repeats. Identical values can stand only once.
How the values were obtained:
[1] = biological target: CP α1S9C β2S161C, labeled with donor and acceptor dyes (single-molecule FRET construct) (mouse) (UniProt Q5RKN9); assay: single-molecule FRET titration
[2] = biological target: CP α1N44C β2E84C, labeled with donor and acceptor dyes (single-molecule FRET construct) (mouse) (UniProt Q5RKN9); assay: single-molecule FRET titration

| Kd [1] | Kd [2] | Substance |
| --- | --- | --- |
| 0.0014 µM |  | WASHCAP CPI-motif peptide |
|  | 0.01 µM and 0.011 µM | CKIP-1 CPI-motif peptide |

From article PMC10872493
